Laboratory results taken from patent US20180291096A1 (Janssen / Centocor, published 2018).

T1: recombinant human IL-23 (hrIL-23), produced at Centocor (human, UniProt P29460 23-328)
T1 construct: p19-p40 heterodimer; also called rhIL-23; huIL-23
T1 sequence 1: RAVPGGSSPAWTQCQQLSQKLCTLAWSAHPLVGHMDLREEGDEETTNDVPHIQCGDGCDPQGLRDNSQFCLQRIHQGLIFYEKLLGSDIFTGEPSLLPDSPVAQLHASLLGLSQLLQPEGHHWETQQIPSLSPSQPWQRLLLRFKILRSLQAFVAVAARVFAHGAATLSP
T1 sequence 2: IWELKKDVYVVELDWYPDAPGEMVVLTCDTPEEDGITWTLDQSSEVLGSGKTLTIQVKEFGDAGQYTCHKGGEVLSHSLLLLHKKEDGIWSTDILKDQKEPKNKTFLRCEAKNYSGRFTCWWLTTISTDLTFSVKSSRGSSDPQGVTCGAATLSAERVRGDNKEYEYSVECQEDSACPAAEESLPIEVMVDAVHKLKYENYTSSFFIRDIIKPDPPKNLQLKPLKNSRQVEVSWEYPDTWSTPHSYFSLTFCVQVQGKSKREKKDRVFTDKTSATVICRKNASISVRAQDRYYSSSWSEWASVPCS

T2: recombinant human IL-12 (hrIL-12), produced at Centocor (human, UniProt P29459 23-219; P29460 23-328)
T2 construct: also called IL-12 CNTO
T2 sequence (looked up) 1: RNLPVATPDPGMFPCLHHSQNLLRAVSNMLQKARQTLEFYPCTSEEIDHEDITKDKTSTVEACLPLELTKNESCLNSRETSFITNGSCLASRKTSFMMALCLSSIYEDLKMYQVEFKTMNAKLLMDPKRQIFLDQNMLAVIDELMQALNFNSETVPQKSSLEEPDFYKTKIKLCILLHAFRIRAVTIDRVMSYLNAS
T2 sequence (looked up) 2: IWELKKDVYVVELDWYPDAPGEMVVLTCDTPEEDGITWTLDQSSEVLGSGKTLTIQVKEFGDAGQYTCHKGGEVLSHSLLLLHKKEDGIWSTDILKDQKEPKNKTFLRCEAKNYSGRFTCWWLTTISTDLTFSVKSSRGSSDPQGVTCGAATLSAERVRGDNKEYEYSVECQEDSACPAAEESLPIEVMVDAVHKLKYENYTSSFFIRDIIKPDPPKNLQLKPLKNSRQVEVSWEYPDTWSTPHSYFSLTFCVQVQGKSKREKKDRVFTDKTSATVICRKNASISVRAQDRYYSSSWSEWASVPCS

T3: murine p40 (murine, UniProt P43432 23-335)
T3 sequence (looked up): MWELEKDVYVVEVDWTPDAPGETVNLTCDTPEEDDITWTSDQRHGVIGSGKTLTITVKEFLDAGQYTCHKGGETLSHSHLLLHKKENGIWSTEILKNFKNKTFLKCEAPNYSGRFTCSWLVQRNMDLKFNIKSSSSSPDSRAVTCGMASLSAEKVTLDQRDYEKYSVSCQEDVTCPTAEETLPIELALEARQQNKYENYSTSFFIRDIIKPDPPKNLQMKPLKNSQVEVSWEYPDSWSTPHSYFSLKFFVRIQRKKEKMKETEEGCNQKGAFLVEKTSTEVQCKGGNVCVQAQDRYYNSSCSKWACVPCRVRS

T4: mIL-12 (Disulfide-linked, glycosylated heterodimer; the letters do not carry this.)
T4 construct: also called murine IL-12; copies: 1 + 1
T4 alpha: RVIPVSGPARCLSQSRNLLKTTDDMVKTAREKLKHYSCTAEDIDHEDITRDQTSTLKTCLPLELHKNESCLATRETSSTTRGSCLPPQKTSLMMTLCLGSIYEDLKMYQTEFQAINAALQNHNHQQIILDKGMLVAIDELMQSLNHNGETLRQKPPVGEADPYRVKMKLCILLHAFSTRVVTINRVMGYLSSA
T4 beta: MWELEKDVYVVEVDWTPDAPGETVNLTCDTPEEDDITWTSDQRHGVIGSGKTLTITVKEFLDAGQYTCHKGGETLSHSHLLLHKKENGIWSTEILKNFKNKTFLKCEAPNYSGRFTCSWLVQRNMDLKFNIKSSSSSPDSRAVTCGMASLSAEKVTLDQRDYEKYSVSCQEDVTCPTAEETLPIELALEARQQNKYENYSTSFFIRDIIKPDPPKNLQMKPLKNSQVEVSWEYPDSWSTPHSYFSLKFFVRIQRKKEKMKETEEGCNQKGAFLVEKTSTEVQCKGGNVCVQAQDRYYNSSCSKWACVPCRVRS

T5: murine IL-23 (murine, UniProt Q9EQ14 22-196; P43432 23-335)
T5 sequence (looked up) 1: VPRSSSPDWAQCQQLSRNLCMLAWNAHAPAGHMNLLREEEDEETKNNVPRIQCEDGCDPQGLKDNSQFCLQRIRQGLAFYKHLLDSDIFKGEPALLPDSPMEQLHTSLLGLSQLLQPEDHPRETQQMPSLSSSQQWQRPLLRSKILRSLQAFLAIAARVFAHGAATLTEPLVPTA
T5 sequence (looked up) 2: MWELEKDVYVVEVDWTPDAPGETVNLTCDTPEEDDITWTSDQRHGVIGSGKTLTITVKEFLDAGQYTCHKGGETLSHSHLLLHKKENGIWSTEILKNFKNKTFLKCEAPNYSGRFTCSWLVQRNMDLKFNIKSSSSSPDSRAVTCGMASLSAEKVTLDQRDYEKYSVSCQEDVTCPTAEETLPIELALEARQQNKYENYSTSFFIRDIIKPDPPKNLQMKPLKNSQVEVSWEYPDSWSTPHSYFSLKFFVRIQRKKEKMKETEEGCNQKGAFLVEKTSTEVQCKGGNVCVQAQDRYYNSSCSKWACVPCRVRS

T6: p40 subunit of hrIL-12 (hrp40 monomer) (human, UniProt P29460 23-328)
T6 construct: also called p40 R&D
T6 sequence (looked up): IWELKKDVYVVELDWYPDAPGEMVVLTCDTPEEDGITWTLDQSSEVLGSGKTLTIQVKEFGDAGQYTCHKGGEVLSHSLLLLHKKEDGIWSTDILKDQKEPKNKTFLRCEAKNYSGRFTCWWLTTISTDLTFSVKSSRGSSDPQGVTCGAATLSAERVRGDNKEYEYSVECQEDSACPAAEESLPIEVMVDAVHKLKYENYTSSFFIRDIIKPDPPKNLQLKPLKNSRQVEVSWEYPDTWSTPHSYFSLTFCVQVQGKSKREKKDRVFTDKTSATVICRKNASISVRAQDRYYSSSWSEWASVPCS


Assays:
[1] = molecular target: T1, recombinant human IL-23 (hrIL-23), …; test: IL-23/IL-23R competition assay
[2] = molecular target: T1, recombinant human IL-23 (hrIL-23), …; test: SET
[3] = molecular target: T1, recombinant human IL-23 (hrIL-23), …; test: hrIL-23/hIL-23R competition assay
[4] = molecular target: T1, recombinant human IL-23 (hrIL-23), …; test: Biacore, Fab capture
[5] = molecular target: T2, recombinant human IL-12 (hrIL-12), …; test: not told
[6] = molecular target: T3, murine p40; test: cytokine capture ELISA: mAbs coated onto plates, cytokines at 100 ng/ml; murine p40 containing cytokine detected with C17.8-biotin; target printed as m(p40)2
[7] = molecular target: T4, mIL-12; test: cytokine capture ELISA: mAbs coated onto plates, cytokines at 100 ng/ml; murine p40 containing cytokine detected with C17.8-biotin
[8] = molecular target: T5, murine IL-23; test: as above
[9] = molecular target: T1, recombinant human IL-23 (hrIL-23), …; test: biotinylated hrIL-23 on immobilized IL-23R-Fc
Procedure: In this experiment, a human IL-23R-Fc fusion protein was immobilized on a plate. This fusion protein consists of the extracellular domain of human IL-23 receptor fused to a human Fc segment. Biotinylated hrIL-23 was added to the plate either alone or after preincubation with individual IL-23p19 mAbs. Soluble IL-23R (IL-23R-Fc) was used as a positive control. IL-23 binding was detected with HRP-conjugated streptavidin. […] There was no inhibition by B21M, a mAb with unrelated specificity. […] IL-23 binding was inhibited by the p40 neutralizing mAb CNTO 1275 (same as mAb 12A), as expected. […] CNTO 1275 again served as a positive control.

[10] = molecular target: T2, recombinant human IL-12 (hrIL-12), …; test: cytokine capture ELISA: mAbs coated onto plates, cytokines at 100 ng/ml, binding detected with mAb12B-biotin
Procedure: (§1) Purified mouse anti-hIL-23 mAbs were evaluated in cytokine capture ELISA to determine their antigen subunit specificity. Briefly, IL-23 mAbs were coated onto plates and incubated with 100 ng/ml) hrIL-23, hrIL-12, and hrp40, respectively. Following incubation with biotinylated anti-p40 mAb, the binding was detected using HRP—conjugated streptavidin. An anti-p40 mAb and an anti-IL-12 mAb (20C2, Catalog No. 555065, BD Pharmingen, San Diego, Calif.) with known specificity were used as controls.

[11] = molecular target: T6, p40 subunit of hrIL-12 (hrp40 monomer); test: as above
Procedure: as §1

[12] = molecular target: T1, recombinant human IL-23 (hrIL-23), …; test: cell-based or functional assay
[13] = molecular target: T1, recombinant human IL-23 (hrIL-23), …; test: SET; remark: listed apart in the source
[14] = molecular target: T1, recombinant human IL-23 (hrIL-23), …; test: IL-23/IL-23R competition assay; remark: listed apart in the source

| Binder | IC50 [1] [nM] | Kd [2] [nM] | IC50 [3] [nM] | Kd [4] [nM] | binding result [5] | Kd [13] [nM] | IC50 [14] [nM] | further results |
| --- | --- | --- | --- | --- | --- | --- | --- | --- |
| MOR04083 Fab (Fab, V domains shown, Fab) VH: QVQLVQSGAEVKKPGSSVKVSCKASGGTFSNYAISWVRQAPGQGLEWMGGIIPMFGYANYAQKFQGRVTITADESTSTAYMELSSLRSEDTAVYYCARDIYAGMDVWGQGTLVTVSS VL: not shown | 7.1 | 1.6 | 4.6 | 16 | – | – | – | – |
| MOR04083 mAb (antibody, human IgG1, V domains shown, human IgG1/kappa; also called 4083 (κ)) VH: QVELVQSGAEVKKPGSSVKVSCKASGGTFSNYAISWVRQAPGQGLEWMGGIIPMFGYANYAQKFQGRVTITADESTSTAYMELSSLRSEDTAVYYCARDIYAGMDVWGQGTLVTVSS VL: not shown | – | – | – | – | – | – | – | binding result [6]: no binding (tested: 100 ng/ml); binding result [7]: no binding (tested: 100 ng/ml); binding result [8]: no binding (tested: 100 ng/ml); fold weaker potency than soluble IL-23R-Fc [9]: ~3 fold; binding result [10]: no binding (tested: 100 ng/ml); binding result [11]: no binding (tested: 100 ng/ml); IC50, inhibition of IL-17 production [12]: 1.4 µg/mL |
| MOR04190 Fab (Fab, V domains shown, Fab) VH: QVQLVQSGAEVKKPGSSVKVSCKASGGTFSSNYISWVRQAPGQGLEWMGGIIPIFGHANYAQKFQGRVTITADESTSTAYMELSSLRSEDTAVYYCARSKKGMYGGWTYPLMMFDLWGQGTLVTVSS VL: not shown | 1.3 | 4.4 | 4.8 | 11 | – | – | – | – |
| MOR04658 Fab (Fab, V domains shown, Fab) VH: QVQLVESGGGLVQPGGSLRLSCAASGFTFSSFGMSWVRQAPGKGLEWVSNISSSGSSTYYADSVKGRFTISRDNSKNTLYLQMNSLRAEDTAVYYCARYWGTPYLMQFDNWGQGTLVTVSS VL: DIALTQPASVSGSPGQSITISCTGTSSDVGGYNSVSWYQQHPGKAPKLMIYSVSSRPSGVSNRFSGSKSGNTASLTISGLQAEDEADYYCSSYDTNKPLVVFGGGTKLTVL | – | – | 0.7 | 11 | – | 4.3 | 14 | – |

More lines, main results first:

| IC50 [1] [nM] | Kd [2] [nM] | IC50 [3] [nM] | Kd [4] [nM] | binding result [5] | Kd [13] [nM] | IC50 [14] [nM] | Binder | further results |
| --- | --- | --- | --- | --- | --- | --- | --- | --- |
| 0.43 | 0.133 | – | – | no binding | – | – | MOR05028 Fab (Fab, V domains shown, Fab) VH: QVQLVQSGAEVKKPGSSVKVSCKASGGTFSNYAISWVRQAPGQGLEWMGGIIPVFGFTHYAQKFQGRVTITADESTSTAYMELSSLRSEDTAVYYCARDIYAGMDVWGQGTLVTVSS VL: not shown | – |
| – | – | – | – | no binding | 0.007 | 0.39 | MOR05049 Fab (Fab, V domains shown, Fab) VH: QVQLVESGGGLVQPGGSLRLSCAASGFTFSSFGMSWVRQAPGKGLEWVSGIEHKYLSYTTHYAASVKGRFTISRDNSKNTLYLQMNSLRAEDTAVYYCARYWGTPYLMQFDNWGQGTLVTVSS VL: DIALTQPASVSGSPGQSITISCTGTSSDVGGYNSVSWYQQHPGKAPKLMIYSVSSRPSGVSNRFSGSKSGNTASLTISGLQAEDEADYYCSSYDTNKPLVVFGGGTKLTVL | – |
